Reference: patent US20050032692A1 (BOARD OF TRUSTEES OF THE UNIVERSITY OF ILLINOIS, published 2005)

Assays:
[1] = target: T1, GFP-FoxM1B 1-688 protein (human, UniProt Q08050 1-703); assay: Co-IP from transfected U2OS extracts
T1 construct: C-terminal truncation; construction not described; not shown: GFP
T1 sequence: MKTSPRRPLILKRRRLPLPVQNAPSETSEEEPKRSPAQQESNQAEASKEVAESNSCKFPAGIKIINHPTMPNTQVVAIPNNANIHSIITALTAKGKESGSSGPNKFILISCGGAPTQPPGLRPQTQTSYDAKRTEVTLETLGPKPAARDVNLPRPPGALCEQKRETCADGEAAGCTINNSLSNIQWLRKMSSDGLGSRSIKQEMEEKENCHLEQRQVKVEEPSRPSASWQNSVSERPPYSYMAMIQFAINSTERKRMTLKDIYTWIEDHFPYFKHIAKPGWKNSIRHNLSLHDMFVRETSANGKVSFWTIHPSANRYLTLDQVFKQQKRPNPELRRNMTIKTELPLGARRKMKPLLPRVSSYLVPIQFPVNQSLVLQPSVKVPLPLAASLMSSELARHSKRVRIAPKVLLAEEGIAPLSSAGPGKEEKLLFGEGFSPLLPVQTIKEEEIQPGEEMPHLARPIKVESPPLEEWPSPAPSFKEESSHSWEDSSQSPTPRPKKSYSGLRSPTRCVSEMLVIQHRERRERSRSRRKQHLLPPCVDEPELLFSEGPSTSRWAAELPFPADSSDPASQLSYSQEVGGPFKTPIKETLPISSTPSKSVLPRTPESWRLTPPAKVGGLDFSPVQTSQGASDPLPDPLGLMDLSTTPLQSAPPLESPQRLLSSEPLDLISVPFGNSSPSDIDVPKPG

[2] = target: Cdk2 protein (UniProt P24941 1-298); assay: Co-IP from transfected U2OS extracts with Cdk2 antibody, Western blot with T7 tag antibody

B1: HA-p19^ARF protein, wild type (other, UniProt Q64364 1-169, looked up, not shown: small tags and cut ends)
chain: MGRRFLVTVRIQRAGRPLQERVFLVKFVRSRRPRTASCALAFVNMLLRLERILRRGPHRNPGPGDDDGQRSRSSSSAQLRCRFELRGPHYLLPPGARRSAGRLPGHAGGAARVRGSAGCARCLGSPAARLGPRAGTSRHRAIFAFRWVLFVFRWVVFVYRWERRPDRRA
notes: also called HA tagged p19; WT p19
B1: no binding [1].

B2: CMV T7-FoxM1B L641A mutant protein (other, not shown: small tags and cut ends)
chain: MKTSPRRPLILKRRRLPLPVQNAPSETSEEEPKRSPAQQESNQAEASKEVAESNSCKFPAGIKIINHPTMPNTQVVAIPNNANIHSIITALTAKGKESGSSGPNKFILISCGGAPTQPPGLRPQTQTSYDAKRTEVTLETLGPKPAARDVNLPRPPGALCEQKRETCADGEAAGCTINNSLSNIQWLRKMSSDGLGSRSIKQEMEEKENCHLEQRQVKVEEPSRPSASWQNSVSERPPYSYMAMIQFAINSTERKRMTLKDIYTWIEDHFPYFKHIAKPGWKNSIRHNLSLHDMFVRETSANGKVSFWTIHPSANRYLTLDQVFKQQKRPNPELRRNMTIKTELPLGARRKMKPLLPRVSSYLVPIQFPVNQSLVLQPSVKVPLPLAASLMSSELARHSKRVRIAPKVLLAEEGIAPLSSAGPGKEEKLLFGEGFSPLLPVQTIKEEEIQPGEEMPHLARPIKVESPPLEEWPSPAPSFKEESSHSWEDSSQSPTPRPKKSYSGLRSPTRCVSEMLVIQHRERRERSRSRRKQHLLPPCVDEPELLFSEGPSTSRWAAELPFPADSSDPASQLSYSQEVGGPFKTPIKETLPISSTPSKSVLPRTPESWRLTPPAKVGGLDFSPVQTSQGASDPLPDPLGAMDLSTTPLQSAPPLESPQRLLSSEPLDLISVPFGNSSPSDIDVPKPGSPEPQVSGLAANRSLTEGLVLDTMNDSLSKILLDISFPGLDEDPLGPDNINWSQFIPELQ
notes: also called CMV FoxM1B L641A
B2: no binding [2].
